These are literature values, as cited in publication PMC4729772 (Theranostics, 2016).

Consider “Albiglutide: glucagon-like peptide-1 dimer fused to human albumin”, for which the half-life entry is “four to seven”.
